According to the RNAGym collection of RNA variant scans (doi:10.7554/elife.80360):

B1: Hairpin Ribozyme (parent)
chain: GUCCUCUUUCACGUGCGCGUGAAAGAGAGAAGUGAACCAGAGAAACACACGUUGUGGUAUAUUACCUGGUA

Variants of: B1
Test: self-cleavage, relative activity (ratio to wild type); higher = more cleavage; co-transcriptional

Variant | self-cleavage
A31U A59G | 0.0459
U14G C66U | 0.217
A39C C50G | 0.0993
U7G C37G | 0.239
G42C A71C | 0.664
G19C G69C | 0.369
A30C G54U | 0.0809
G15A G56C | 0.172
C3U A23U | 0.535
G17C A28G | 0.957
C10G C65G | 0.246
A28C C48U | 0.124
C4G G15C | 0.212
U8G G34U | 1.28
A22C C38A | 0.124
G17C A49C | 0.146
G21U A45G | 0.26
A23U G34C | 1.12
G1U A35C | 0.0858
U55A A59U | 0.205
A24U G25A | 0.219
G42C U60G | 0.211
U14C G21U | 0.702
G34U U63C | 0.589

Variant | self-cleavage
C12U U70C | 0.96
A28C A43G | 0.129
U20G U52C | 0.998
U7G A49C | 0.141
G34U A64U | 0.883
U20C G68A | 0.251
A26U C66A | 0.146
U5C U67G | 0.245
C4A U33A | 0.174
U2C C46A | 0.232
U52G U67A | 0.212
U5G C66G | 0.127
C18G A35C | 0.797
A23C U63C | 0.136
A22U G25A | 0.149
U20G A36G | 0.569
U7C U63A | 0.19
A31G U33G | 0
C38A A49G | 0.182
C38G G57U | 0.116
U14A U53A | 1.12
A28G C38U | 0.547
G57C U62C | 0.15
G42A U58A | 0.139

Variant | self-cleavage
G19U A31C | 0.0951
G34U U53C | 0.405
A26G C46G | 0.19
U58A A59C | 0.252
U20G U63C | 0.255
G17U C18G | 0.979
C18U A24U | 0.844
U14C A31U | 0.0592
U5A U55G | 0.147
C12G U14A | 0.629
U20A U53C | 0.682
C10A G27U | 0.233
U52A G68C | 0.231
U20G G27A | 0.31
C10U G40A | 0.308
A31U C50G | 0.152
G57C A64G | 0.126
U20G A28C | 0.462
G13U U55G | 0.124
C6A G69C | 0.236
A49U G51A | 0.209
C12U G57A | 0.215
A47G C50U | 0.101
C4G C46G | 0.122

Variant | self-cleavage
U33C U67C | 0.129
C46G A47U | 0.136
C3G G57A | 0.102
A23G U55C | 0.322
A26U G51U | 0.614
U7G A22G | 0.908
A41U U60C | 1.24
G34U A39G | 1.15
U2G A22U | 0.259
C48U U60A | 0.107
U7G C50G | 0.143
A36C U53G | 0.371
C4A A45C | 0.167
U33C U63C | 0.187
C4U A26C | 0.144
C12U C18A | 1.01
C48A A59G | 0.219
C46U A59G | 0.112
A22C A45G | 0.15
A39C A59C | 0.114
G56A U62A | 0.182
C37U G68U | 0.193
A11G A26C | 0.624
U53C U70G | 0.765

Variant | self-cleavage
A47G G54U | 0.163
U8C A22C | 0.209
C65U U70A | 0.379
A59U U62C | 0.185
G1U U14C | 0.128
G34A G51C | 1.15
G15C U67A | 0.112
A23C U70A | 0.872
C48U G68A | 0.244
G19U A23C | 0.666
C46U A61U | 0.267
U2A C3U | 0.288
G27U A30C | 0.1
G21A U70C | 0.758
U33C A71C | 0.63
U8C G21U | 0.142
C3U C65A | 0.611
C18G G68C | 0.266
C16U A39U | 0.312
U14G A30C | 0.129
G1U U9G | 0.224
G17C U62A | 0.115
U20G C46G | 0.219
C6A A36U | 0.384

Variant | self-cleavage
G57U U60G | 0.177
C50A C65U | 0.179
U14C A35G | 0.953
A26G U52C | 0.822
C6G U67C | 0.151
U8C U20A | 0.604
G34C A45C | 0.0204
A11C U33C | 0.252
C37U A71U | 0.557
G57C A61G | 0.0894
A11G A28C | 0.446
A39U U70A | 0.289
C4G G42A | 0.194
G40C C65A | 0.145
U20A A24G | 0.895
G34A A61U | 0.218
A23U A44U | 0.15
C10G U62C | 0.261
U5A G40A | 0.17
G40C A47G | 0.0685
G25C U62G | 0.0816
G27C U70C | 0.132
U14G A31G | 0.693
U7C A64C | 0.26

Variant | self-cleavage
A23G C66A | 0.246
A23G C66G | 0.265
U58A G69U | 0.175
G27U A71G | 0.261
C66A U67A | 0.234
A35G C48U | 0.132
G19C C50U | 0.397
C12G G15C | 0.756
A41C G69C | 0.287
A11C | 0.849
U14G U58C | 0.881
G1U U2G | 0.22
A39U G51C | 0.35
U5A A49G | 0.103
U14A G21U | 0.795
A44G A71U | 0.158
G17U G57U | 0.264
C50U G51C | 0.256
C46A C65U | 0.259
U7C G69A | 0.289
G1A A36U | 0.0776
A22G G69A | 0.385
C38A A71G | 0.249
C37G U55C | 0.178

Variant | self-cleavage
C6G A35C | 0.499
G21A A24C | 0.563
C6A U52A | 0.588
G51C U53G | 0.675
U9C G21C | 0.479
U8G G13U | 0.438
A44C G54A | 0.184
A24G C65U | 0.371
C3U A26G | 0.509
G17A A61G | 0.107
U5A G17U | 0.395
A30G G56U | 0.133
A41G U63A | 0.328
G1C C6U | 0.249
C3G U55G | 0.0936
G15A A39G | 0.287
U33C C48G | 0.227
G68C U70A | 0.143
A41C C48A | 0.218
U14A A24G | 0.938
C4G G69A | 0.132
G13A U58C | 0.817
A43U U67G | 0.0666
A11U A45C | 0.241

Variant | self-cleavage
U33A G57C | 0.157
G1A G15C | 0.287
U58G A59C | 0.149
G21U A26U | 0.561
C37G G51C | 0.469
U14C G17U | 1.24
G19A G57U | 0.289
U2C A59C | 0.0741
G40C U62C | 0.143
U2C C50A | 0.0705
U2C C50G | 0.144
G13C A28G | 0.85
G15A U70G | 0.838
G51C G56U | 0.147
A44G G69U | 0.0884
G15C G21U | 1.06
C16A U70G | 0.461
C38A U53A | 0.215
G32C A49G | 0.189
C18G A28C | 0.445
C18G A28G | 1.11
G19A G25A | 0.368
A11C A36U | 0.491
U14A C50G | 0.279

Variant | self-cleavage
C12A A45G | 0.177
G15A C48A | 0.133
C3A U67A | 0.132
U14G G42U | 0.163
A35C C48U | 0.101
A26G A45C | 0.135
G1A A61C | 0.175
U63C C66U | 0.165
A35C G51U | 1.24
G25U C65U | 0.188
A30G C66A | 0.192
G29C C46G | 0.0799
A43G G57C | 0.195
U7C G27A | 0.386
C6G U14G | 0.374
C10G C50A | 0.198
A39G C65A | 0.442
A11C U70C | 1.23
G13A A31U | 0.202
G27A U52C | 0.477
A39G U62C | 0.145
G1A C6A | 0.197
C37A A47C | 0.108
G13U G56A | 0.127

Variant | self-cleavage
G21U G32A | 0.18
G29U A45U | 0.101
G29U A45C | 0.0757
G17C C65G | 0.339
G17U A31G | 0.6
C10G G21C | 0.93
C46G G57A | 0.0965
A31U A35G | 0.244
G32U U70A | 0.111
G19A A22U | 0.531
A11C G68C | 0.136
U7A A47C | 0.34
G19C G25C | 0.46
C6G G32A | 0.106
G15A C38U | 0.44
G15A C16A | 0.881
U7A A41C | 1.3
A39G A64U | 0.123
G19U A35U | 0.626
C37A C48A | 0.189
A28U A41C | 1.13
A30U C66U | 0.083
A41G A64U | 0.206
C48U A61C | 0.128

Variant | self-cleavage
U2A U58A | 0.164
U55A U67C | 0.149
C3A C6U | 0.471
U8C G51A | 0.855
U62C U67G | 0.265
G27A G54C | 0.105
G56A A64G | 0.12
G19A A49U | 0.17
C10U G17A | 0.808
U20C A24C | 0.612
A35G C50A | 0.326
G1U C50U | 0.0718
C37U U53C | 0.808
A22C G29A | 0.0644
G15U U70C | 0.999
A11C U63A | 0.201
U14G G21C | 0.342
A23G U53A | 0.727
G1C U8A | 0.27
A24G A44U | 0.0876
G1U C16A | 0.111
G13U G57A | 0.123
C4A G25C | 0.153
A36C A44G | 0.157

Variant | self-cleavage
A11C C46G | 0.204
U14G U20G | 0.736
G40C U70C | 0.13
A28C U62C | 0.203
U5G A59U | 0.0694
A23C A49U | 0.257
C12A U67G | 0.215
G21A A30G | 0.238
U20C A22C | 0.482
C10G A59U | 0.16
A31U C46U | 0.205
G1A G54C | 0.193
C3U C38U | 0.354
C46A U52C | 0.271
G1C G56A | 0.0459
A35G G54A | 0.477
A36G C66A | 0.0924
U20C | 0.963
A45U U67A | 0.0841
A31G A36G | 0.57
U7C A45G | 0.104
G19C C37U | 0.454
A28U G40A | 0.175
C37U A41U | 0.969

Variant | self-cleavage
A61U A64C | 0.197
C4G A44G | 0.0493
G15C G34U | 0.975
A22C A31C | 0.16
C6U G19C | 0.719
G25A G34A | 0.715
A23U C65A | 0.752
U5G G54U | 0.228
G42C A49U | 0.155
C3A A39C | 0.328
C10U G21A | 0.937
G21A U55G | 0.271
G1A A23U | 0.163
U62A A64C | 0.164
U60G U67C | 0.121
G40A A71G | 0.402
U33C G69C | 0.114
A22C A35G | 0.679
U14C U20G | 1.09
C12G U63G | 0.204
C12A A59G | 0.226
G1U G34U | 0.19
